For assay [1], the target named is fluorescently labeled duramycin. Description: fluorescence polarisation. Background: In fluorescence polarisation assays a small probe gives low polarisation when free and higher when bound to something large.
The target of assay [2] is MBP-DurN. Put plainly: fluorescence polarisation.
Assay [3] has as its target DurN. Description: crystal structure.
In assay [4] the target is DurN. Description: crystal structure. The source holds these as a separate data set.
Assay [5] concerns the target DurN. Description: crystal structure. This is another data set of the same source.

Where two headings read alike, the source gives them in different places.

The values below come from doi:10.1101/358382.

Broadly, the Ki is the equilibrium dissociation constant of an inhibitor or competing ligand from its target. As usually defined, the Kd is the equilibrium constant for the complex coming apart. High values mean a looser complex, low ones a tighter complex. Broadly, the stoichiometry N is the number of molecules, sites or subunits per partner or assembly.

For MBP-DurN K66A (enzyme), the Ki in assay [1] is 7.43 µM.
For the substance duramycin (peptide), the Ki in assay [2] was 2.72 µM.
Turning to MBP-DurN (enzyme), the Kd in assay [1] was 0.417 µM.
The substance 1-Hya15Ser (peptide) had a Ki in assay [2] of 10.2 µM.
As for DurN (enzyme), the stoichiometry N in assay [3], in assay [4] and in assay [5] was 2 each time.
